Results reported in the RNAGym collection of RNA variant scans (doi:10.1073/pnas.2313332121).
Fewer inactive variants are shown than the library holds.

B1: TPR 5TU (parent)
chain: GGAUCUUCUCGAUCUAACAAAAAAGACAAAUCUGCCACAAAGCUUGAGAGCAUCUUCGGAUGCAGAGGCGGCAGCCUUCGGUGGCGCGAUAGCGCCAACGUUCUCAACUAUGACACGCAAAACGCGUGCUCCGUUGAAUGGAGUUUAUCAUG

Variants of: B1
Experiment: polymerase ribozyme fitness, log enrichment relative to wild type (log ratio); higher = more active; in vitro selection for triplet polymerase activity
In short: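 After PCR construction and transcription, each subunit's mutant library from a heterodimeric triplet polymerase ribozyme was annealed with a biotinylated primer, the partner subunit and triplets. Incubation was frozen, at −7 °C, and extended constructs were gel-excised, bound to streptavidin beads and amplified by RT-PCR, in one selection round done in triplicate. Fitness is the logarithm of a genotype's enrichment divided by that of the wild type, from inverse-variance-weighted replicate averages of Illumina-sequenced inputs and outputs. The base of the logarithm is 2, and genotypes needed ≥10 input reads and ≥1 read per output.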

GGAUCUUCUCGAUCUAACAAAAAAGACAAAUCUGCCACAAAGCUUGAGAGCAUCUUCGGAUGCAGAGGCGGCAGCCUUCGGUGGCGCGAUAGCGCUAACGUUCUCAACUAUGACACGCAAACCGCGUGCUCCGUUGAAUGGAGUUUAUCAUG [C96U A122C] and GGAUCUUCUCGAUCUAACAAAAAAGACAAAUCUGCCACAAAGCUUGAGAGCAUCUUCGGAUGCAGAGGCGGCAGCCUUCGGUGGCGCGAUAGCGCUAACGUUCUCAACUAUGACACGCAAAGCGCGUGCUCCGUUGAAUGGAGUUUAUCAUG [C96U A122G] are within 0.2 log units of each other in “polymerase ribozyme fitness (log ratio)” value: -0.314 for the first, -0.14 for the second.

First: GGAUCUUCUCGAUCUAACAAAAAAGACAAAUCUGCCACAAAGCUUGAGAGCAUCUUCGGAUGCAGAGGCGGCAGCCUUCGGUGGCGCGAUAGCGCUAACGUUCUCAACUAUGACACGCAAAACGCGUGCUCAGUUGAAUGGAGUUUAUCAUG [C96U C132A]
Second: GGAUCUUCUCGAUCUAACAAAAAAGACAAAUCUGCCACAAAGCUUGAGAGCAUCUUCGGAUGCAGAGGCGGCAGCCUUCGGUGGCGCGAUAGCGCUAACGUUCUCAACUAUGACACGCAAAACACGUGCUCCGUUGAAUGGAGUUUUUCAUG [C96U G124A A147U]
The “polymerase ribozyme fitness (log ratio)” value of the first is lower: -1.63 for the first, 0.911 for the second.

First: GGAUCUUCUCGAUCUAACAAAAAAGACAAAUCUGCCACAAAGCUUGAGAGCAUCUUCGGAUGCAGAGGCGGCAGCCUUCGGUGGCGCGAUAGCGCUAACGUUCUCAACUAUGACACGCAAAACGCGUGCUCCGUUGAAUGGAGUUUGUCAUG [C96U A147G]
Second: GGAUCUUCUCGAUCUAACAAAAAAGACAAAUCUGCCACAAAGCUUGAGAGCAUCUUCGGAUGCAGAGGCGGCAGCCUUCGGUGGCGCGAUAGCGCUAACGUUCUCAACUAUGACACGCAAAACGCGUGCUCCGUUGAAUGGAGUUUUUCAUG [C96U A147U]
The “polymerase ribozyme fitness (log ratio)” value of the first is lower: -1.18 for the first, 1.21 for the second.

Going from GGAUCUUCUCGAUCUAACAAAAAAGACAAAUCUGCCACAAAGCUUGAGAGCAUCUUCGGAUGCAGAGGCGGCAGCCUUCGGUGGCGCGAUAGCGCUAACGUUCUCAACUAUGAUACGCAAAACGCGUGCUCCGUUGAAUGGAGUUUAUCUUG [C96U C114U A150U] to GGAUCUUCUCGAUCUAACAAAAAAGACAAAUCUGCCACAAAGCUUGAGAGCAUCUUCGGAUGCAGAGGCGGCAGCCUUCGGUGGCGCGAUAGCGCUAACGUUCUCAACUAUGACACGCAAAACACGUGCUCCGUUGAAUGGAGUUUAUCAUG [C96U G124A], the “polymerase ribozyme fitness (log ratio)” value rises from -3.94 to -0.382.

Going from GGAUCUUCUCGAUCUAACAAAAAAGACAAAUCUGCCACAAAGCUUGAGAGCAUCUUCGGAUGCAGAGGCGGCAGCCUUCGGUGGCGCGAUAGCGCUAACGUUCUCAACUAUGACACGCAAAACUCGUGCUCCGUUGAAUGGAGUUUAUCAUG [C96U G124U] to GGAUCUUCUCGAUCUAACAAAAAAGACAAAUCUGCCACAAAGCUUGAGAGCAUCUUCGGAUGCAGAGGCGGCAGCCUUCGGUGGCGCGAUAGCGCUAAAGUUCUCAACUAUGACACGCAAAACGCGUGCUCCCUUGAAUGAAGUUUAUCAUG [C96U C99A G133C G141A], the “polymerase ribozyme fitness (log ratio)” value falls from -0.372 to ≤ -4.2.

Compared with GGAUCUUCUCGAUCUAACAAAAAAGACAAAUCUGCCACAAAGCUUGAGAGCAUCUUCGGAUGCAGAGGCGGCAGCCUUCGGUGGCGCGAUAGCGCUAACGUCCUCAACUAUGACACGCAAAACGUGUGCUCCGUUGAAUGGAGUUUAUCAUG [C96U U102C C125U], GGAUCUUCUCGAUCUAACAAAAAAGACAAAUCUGCCACAAAGCUUGAGAGCAUCUUCGGAUGCAGAGGCGGCAGCCUUCGGUGGCGCGAUAGCGCUAACGUUCUCAACUAUGACACGCAAAAUGCGUGCUCCGUUUAAUGGAGUUUAUCAUG [C96U C123U G136U] is higher in “polymerase ribozyme fitness (log ratio)” value: -2.51 for the first, -2.2 for the second.

Compared with GGAUCUUCUCGAUCUAACAAAAAAGACAAAUCUGCCACAAAGCUUGAGAGCAUCUUCGGAUGCAGAGGCGGCAGCCUUCGGUGGCGCGAUAGCGCUAACGUUCUCAACUAUGACACGCAAUACGCGUGCUCCGUUGAAAGGAGUUUAUCAUG [C96U A121U U139A], GGAUCUUCUCGAUCUAACAAAAAAGACAAAUCUGCCACAAAGCUUGAGAGCAUCUUCGGAUGCAGAGGCGGCAGCCUUCGGUGGCGCGAUAGCGCUAACGUUCUCAACUAUGACACGCAAAACGAGUGCUCCGUUGAAUGGAGUUUAUCAUG [C96U C125A] is higher in “polymerase ribozyme fitness (log ratio)” value: ≤ -4.2 for the first, -0.0844 for the second.

Compared with GGAUCUUCUCGAUCUAACAAAAAAGACAAAUCUGCCACAAAGCUUGAGAGCAUCUUCGGAUGCAGAGGCGGCAGCCUUCGGUGGCGCGAUAGCGCUAACGUUCUCAACUAUGACACGCAAAACGUGUGCUCCGUUGAAUGGAGUUUAUCAUG [C96U C125U], GGAUCUUCUCGAUCUAACAAAAAAGACAAAUCUGCCACAAAGCUUGAGAGCAUCUUCGGAUGCAGAGGCGGCAGCCUUCGGUGGCGCGAUAGCGCUAACGUUCUCAACUAUGACACGCAAAACGCGUGCUCCGUUGAAUGGAGUUCAUCAUG [C96U U146C] is lower in “polymerase ribozyme fitness (log ratio)” value: -0.382 for the first, -0.67 for the second.

Going from GGAUCUUCUCGAUCUAACAAAAAAGACAAAUCUGCCACAAAGCUUGAGAGCAUCUUCGGAUGCAGAGGCGGCAGCCUUCGGUGGCGCGAUAGCGCUAACGUUCUCAACUAUGACACGCAAAACGCGUUCUCCGUUGAAUGGAGUUCAUCAUG [C96U G128U U146C] to GGAUCUUCUCGAUCUAACAAAAAAGACAAAUCUGCCACAAAGCUUGAGAGCAUCUUCGGAUGCAGAGGCGGCAGCCUUCGGUGGCGCGAUAGCGCUAACGUUCGCAACUAUGACACGCAAAACGCGUGCUCCGUUGAAUGGAGUUUAUCAUG [C96U U104G], the “polymerase ribozyme fitness (log ratio)” value rises from -3.35 to -1.59.

In the case of GGAUCUUCUCGAUCUAACAAAAAAGACAAAUCUGCCACAAAGCUUGAGAGCAUCUUCGGAUGCAGAGGCGGCAGCCUUCGGUGGCGCGAUAGCGCUAACGUGCUCAACUAUGACACGCAAAACGCGUGCUCCGUUGAAUGGAGAUUAUCUUG [C96U U102G U144A A150U], the “polymerase ribozyme fitness (log ratio)” value is reported as ≤ -4.2.
